The values below come from US20240124553A1.

pKd: −log10 of the molar value. Values joined by “and” are separate entries in the source; they are usually repeats but may differ in a detail not shown here. Equal entries are not always repeated. Where two headings read alike, the source gives them in different places.

The target in assay [1] is CHIKV virus-like particles (strain 37997) (chikungunya virus).
For assay [2] the target is unchanged. The source holds these as a separate data set.
For assay [3] the target is unchanged. The source holds these as a separate data set.
The target of assay [4] is CHIKV strain 181/25 (virions; also E2-E1 shown on infected cells) (chikungunya virus). Description: cryo-EM of infectious CHIKV with Mxra8.
The target of assay [5] is CHIKV virus-like particles (strain 37997) (chikungunya virus). Description: SPR, […], kinetic fit ([…].
The target is the same in assay [6]. This is another data set of the same source.
For assay [7] the target is unchanged. The source holds these as a separate data set.

A word on the pKd: it is −log10 of the Kd, conventionally taken in molar units. The low end stands for a large Kd, the high end for a small Kd. A word on the kon: it is a measure of how fast the partners come together.

Consider “Mxra8 cleaved from Mxra8-HRV-Fc (soluble monomeric mouse Mxra8) (from UniProt Q9DBV4 23-336) (receptor)”, for which the pKd in assay [1] was 6.70; in assay [2], 6.74 and 6.65; in assay [3], 7.08 and 6.57; in assay [5] it was 7.08 and 6.57; in assay [7], 7.22 and 6.52. The on-rate (kon) in assay [2] turned out to be 37000 M⁻¹ s⁻¹. Besides, in assay [2], the t1/2 came to 1.8 min. The substance further registered a Mxra8 proteins bound per particle (proteins per particle) in assay [4] of 60. Besides, the Mxra8 molecules per virion (molecules per virion) in assay [6] was determined as 240.
